Data published in PMC4660060, “The molecular architecture of the Dam1 kinetochore complex is defined by cross-linking based structural modelling” (Nature Communications, 2015).
Numbering of substitutions follows the chain as printed. Names may count otherwise.

B1: Dam1 complex (complex, yeast)
chain 1: MDSASKEETLEKLDQEITVNLQKIDSNLSFCFHKITQDIIPHVATYSEICERIMDSTEWLGTMFQETGLVNLQANAAAPVGNAPVKSLVSNNVGIFPTSAEEASRQSQTDNGPNEADSAVHVNRDVHSMFNNDSIDDFHTANITSTGQILKLPDSSDEDTGSEAVPSREQTDLTGEGHGGADDEQDESTIQRQSRKRKISLLLQQQYGSSSSMVPSPIVPNKMRKQLAHEEHINNDGDNDDENSNNIESSPLKQGHHHPKGQADDNNEGPDEEESTKEVPKPGTIIHFSTNR
chain 2: MMASTSNDEEKLISTTDKYFIEQRNIVLQEINETMNSILNGLNGLNISLESSIAVGREFQSVSDLWKTLYDGLESLSDEAPIDEQPTLSQSKTK
chain 3: MDSIDEQIAIKRKELQSLQKITSLTDGLKIQLTELNEQIKEMGMNADSVAQLMNNWDSIINNISQASLGLLQYAEGDYEIGPWKDSKKKESEQSNETGLEAQENDKNDEDNDEDEDLVPLPETMVRIRVDGNE
chain 4: MEHNLSPLQQEVLDKYKQLSLDLKALDETIKELNYSQHRQQHSQQETVSPDEILQEMRDIEVKIGLVGTLLKGSVYSLILQRKQEQESLGSNSK
chain 5: MENPHEQVQANILSRIIGNVKRLNESVAILNQELVTINNRNKNLEIMGAICDNYHSSVQFNLEATNNKKPPL
chain 6: MSEDKAKLGTTRSATEYRLSIGSAPTSRRSSMGESSSLMKFADQEGLTSSVGEYNENTIQQLLLPKIRELSDSIITLDSNFTRLNFIHESLADLNESLGSLLYGIMSNSWCVEFSQAPHDIQDDLIAIKQLKSLEDEKNNLVMELSNMERGIKRKKDEQGENDLAKASQNKQFNQPLFPSSQVRKYRSYDNRDKRKPSKIGNNLQVENEEDYEDDTSSEASFVLNPTNIGMSKSSQGHVTKTTRLNNNTNSKLRRKSILHTIRNSIASGADLPIENDNVVNLGDLHPNNRISLGSGAARVVNGPVTKNRNSMFSGRAERKPTESRHSVAKKTEKKINTRPPFR
chain 7: MSEQSQLDDSTIDKLIPQIFNEMRSNLNNTTNKFPKSTGGGASDNISANSNSIRSFNSITTQSLLKESESLDKITAMIKNVTAALKNNLPVYVNQVHEVCKSTNSILDSWINIHSQAGYIHKLMSDQTYLKLINDRLHNENVNTNDEDGSTLHNVIALKKKEILDLRQKLENRKGEKDAAPAKPPNQGLNPRYGVQSGRRPVPSAGISNNGRVRKTHVPASKRPSGIPRVTNRWTKPTASSSRKMFR
chain 8: MNANKQRQYNQLAHELRELQTNLQETTKQLDIMSKQCNENLVGQLGKVHGSWLIGSYIYYMEQMLGKTQ
chain 9: MTDALEQSVLALEGTVSVLKDSVESLKCANEPSTNLASTMLQTKRVFRLVPEYDVERSKLDLIEEVEPLVRTLGDKLRKSMGRMQRELDTLQQTYELNDLRLKKNISMDDDDALNSPDMGQEYEGRDADDVVMMASSTNEELEELKKLKEKKKQLENKLEILKQK
chain 10: MGESLDRCIDDINRAVDSMSTLYFKPPGIFHNAILQGASNKASIRKDITRLIKDCNHDEAYLLFKVNPEKQSVSRRDGKEGVFDYVIKRDTDMKRNRRLGRPGEKPIIHVPKEVYLNKDRLDLNNKRRRTATTSGGGLNGFIFDTDLIGSSVISNSSSGTFKALSAVFKDDPQIQRLLYALENGSVLMEEESNNQRRKTIFVEDFPTDLILKVMAEVTDLWPLTEFKQDYDQLYHNYEQLSSKLRFIKKEVLLQDDRLKTMSQYHPSSSHDVAKIIRKEKDEIRRLEMEIANLQE
notes: Ten different subunits; also called Dam1 kinetochore complex; free Dam1 complex; copies: + + + + + + + + +
B2: Dam1-GFP CP complex, mock-treated (Dam1p S20A, Ask1p S200A, Spc34p T199A) (complex, yeast)
chain 1: B1 chain 1 with S200A
chain 2: B1 chain 2
chain 3: B1 chain 3
chain 4: B1 chain 4
chain 5: B1 chain 5
chain 6: B1 chain 6 with S20A
chain 7: B1 chain 7
chain 8: B1 chain 8
chain 9: B1 chain 9
chain 10: B1 chain 10 with T199A
notes: GFP-tagged complex, detected by its GFP; In the tracer assay 20 pM of this complex met 2 nM of the same mutant complex without GFP; also called Dam1 CP mock; Dam1 CP; source: recombinant Dam1 complex (E. coli BL21 Rosetta, purified); mock-treated with GST-Ipl1 and GST-Sli15 (554-698), distilled water in place of ATP; copies: + + + + + + + + +
B3: Dam1-GFP NP complex, mock-treated (Dam1p S257A, S265A, S292A, Ask1p S200A, Spc34p T199A) (complex, yeast)
chain 1: B1 chain 1 with S200A
chain 2: B1 chain 2
chain 3: B1 chain 3
chain 4: B1 chain 4
chain 5: B1 chain 5
chain 6: B1 chain 6 with S257A, S265A, S292A
chain 7: B1 chain 7
chain 8: B1 chain 8
chain 9: B1 chain 9
chain 10: B1 chain 10 with T199A
notes: GFP-tagged complex, detected by its GFP; In the tracer assay 20 pM of this complex met 2 nM of the same mutant complex without GFP; also called Dam1 NP mock; Dam1 NP; source: recombinant Dam1 complex (E. coli BL21 Rosetta, purified); mock-treated with GST-Ipl1 and GST-Sli15 (554-698), distilled water in place of ATP; copies: + + + + + + + + +
B4: Dam1-GFP CP complex, phosphorylated by Ipl1 (Dam1p S20A, Ask1p S200A, Spc34p T199A; Dam1p C-terminal sites phosphorylated) (complex, yeast)
chain 1: B1 chain 1 with S200A
chain 2: B1 chain 2
chain 3: B1 chain 3
chain 4: B1 chain 4
chain 5: B1 chain 5
chain 6: B1 chain 6 with S20A
chain 7: B1 chain 7
chain 8: B1 chain 8
chain 9: B1 chain 9
chain 10: B1 chain 10 with T199A
modifications: phosphoserine at S257, S265 and S292 (by Ipl1 kinase, nearly stoichiometric)
notes: GFP-tagged complex, detected by its GFP; In the tracer assay 20 pM of this complex met 2 nM of the same phosphorylated mutant complex without GFP; also called Dam1 CP phos; Dam1 CP; source: recombinant Dam1 complex (E. coli BL21 Rosetta, purified); phosphorylated with GST-Ipl1, GST-Sli15 (554-698) and 10 mM ATP, 90 min, 30 °C; copies: + + + + + + + + +
B5: Dam1-GFP NP complex, phosphorylated by Ipl1 (Dam1p S257A, S265A, S292A, Ask1p S200A, Spc34p T199A; Dam1p S20 phosphorylated) (complex, yeast)
chain 1: B1 chain 1 with S200A
chain 2: B1 chain 2
chain 3: B1 chain 3
chain 4: B1 chain 4
chain 5: B1 chain 5
chain 6: B1 chain 6 with S257A, S265A, S292A
chain 7: B1 chain 7
chain 8: B1 chain 8
chain 9: B1 chain 9
chain 10: B1 chain 10 with T199A
modifications: phosphoserine at S20 (by Ipl1 kinase, nearly stoichiometric)
notes: GFP-tagged complex, detected by its GFP; In the tracer assay 20 pM of this complex met 2 nM of the same phosphorylated mutant complex without GFP; also called Dam1 NP phos; Dam1 NP; source: recombinant Dam1 complex (E. coli BL21 Rosetta, purified); phosphorylated with GST-Ipl1, GST-Sli15 (554-698) and 10 mM ATP, 90 min, 30 °C; copies: + + + + + + + + +

How the values were obtained:
[1] = target: the molecule itself; assay: electron microscopy; cross-linked Dam1 complex on MTs examined by EM
[2] = target: the molecule itself; assay: TIRF microscopy, tracer residence time; GFP-tagged and unlabelled versions of the same mutant Dam1 complex mixed 1:100 to 2 nM in all (20 pM tracer), on immobilised MTs; BRB80, 0.8 mg/ml kappa-casein, 50 mM KCl, oxygen scavengers; concentrations that support oligomeric rings

| Protein | fold increase of the average residence time on MTs against single molecules [2] [fold] | other results |
| --- | --- | --- |
| B1 | – | binding result [1]: binds |
| B2 | > 5 | – |
| B3 | > 5 | – |
| B4 | – | binding result [2]: binds |
| B5 | 2 | – |
